Key:
[1] = target: T1, human PD-1 expressed on GS-J2/PD-1 cells (Genscript) (human, UniProt Q15116 25-288); test: cell-based binding FACS on GS-J2/PD-1 cells expressing human PD-1 (MFI); unit from the axis 'Con of mAb, nM.'
T1 construct: whole, on cells; also called cell-surface human PD-1

[2] = target: T2, in house made human PD-1-Fc protein (human, biotin-labeled (sites not given)); test: blocking FACS: biotin human PD-1-Fc + antibody on GS-C2/PD-L1 cells (competitor: cell-surface human PD-L1)
T2 construct: also called biotin-labeled human PD-1-Fc
Protocol: GS-C2/PDL1 cells were harvested from cell culture flasks at the log phase, washed twice and re-suspended in PBS containing 2% v/v Fetal Bovine Serum (FACS buffer). GS-C2/PD-L1 cells, 0.6×10⁵ cells per welt, were incubated in 96 well-plates with 100 the antibody/PD1-Fc mixture for 40 minutes at 4° C. Cells were washed twice with FACS buffer, added with 100 R-Phycoerythrin Streptavidin (1:500 dilution in FACS buffer, Cat#:016-110-084, Jackson Immunoresearch), and incubated for 40 minutes at 4° C. in dark. Cells were washed twice and re-suspended in FACS buffer. Fluorescence was measured using a Becton Dickinson FACS Canto II-HTS equipment. Data was analyzed using Graphpad Prism software and IC₅₀ values were reported.

[3] = target: T1, human PD-1 expressed on GS-J2/PD-1 …; test: flow cytometry on GS-J2/PD-1 cells
Protocol: In specific, the 293F-mouse PD-1 cells and GS-J2/PD-1 cells were respectively harvested from cell culture flasks, washed twice and re-suspended in PBS containing 2% v/v Fetal Bovine Serum (FACS buffer). Then, 2×10⁵ cells per well were incubated in 96 well-plates with 100 μl of the anti-PD1 antibodies or controls at various concentrations for 40 minutes on ice. […] Following an incubation of 40 minutes at 4° C. in dark, cells were washed three times and re-suspended in FACS buffer. Fluorescence was measured using a Becton Dickinson FACS Canto II-HTS equipment and plotted against antibody concentrations. Data was analyzed using GraphPad Prism software and EC₅₀ values were reported.
For the cell-based binding FACS, R-Phycoerythrin AffiniPure Goat Anti-human IgG Fcγ fragment specific (Cat#:109-115-098, Jackson ImmunoResearch) was used for the humanized antibodies, with 1:1000 dilution in FACS buffer, 100 μl/well.

[4] = target: T1, human PD-1 expressed on GS-J2/PD-1 …; test: cell-based or functional assay
[5] = target: T3, human PD-1-his protein prepared in-house (human, UniProt Q15116 25-167, biotin-labeled (sites not given)); test: capture ELISA, antibody captured, biotin human PD-1-his detected
T3 construct: also called biotin labeled human PD-1-his
Protocol: Briefly, 96-well micro plates were coated with 100 μl 2 μg/ml AffiniPure Goat Anti-Mouse IgG F(ab′)₂ fragment specific (Cat#:115-005-072, Jackson lmmunoResearch) or Goat-anti-human IgG (Cat#:109-005-097, Jackson ImmunoResearch, for the positive control and negative control) in PBS overnight at 4° C. Plates were washed once with wash buffer (PBST, PBS+0.05% Tween-20) and then blocked with 200 μl/well blocking buffer (5% w/v non-fatty milk in PBST) for 2 hours at 37° C. […] After a final wash, plates were incubated with 100 μl/well TMB (Cat#:TMB-S-002, Innoreagents) at room temperature.
For the capture ELISA, 96-well plates were coated with 100 μl 2 μg/ml AffiniPure Goat Anti-Human IgG, Fcγ fragment specific (Cat#:109-005-098, Jackson Immunoresearch) instead of AffiniPure goat-anti-mouse IgG F(ab′)₂ fragment specific.

[6] = target: T4, human PD-1-his protein (Cat#:PD1-H5221, Acro biosystems Inc.) (human, UniProt Q15116 25-167); test: BLI (Octet RED96), supernatant antibody captured on AHC sensor, human PD-1-his in solution, 1:1 fit
T4 construct: not shown: his tag
Protocol: Briefly, AHC biosensors (anti-human IgG Fe capture, from ForteBio) were presoaked with 10 mM glycine (pH 1.5) for 3 seconds, and then dipped in a well with running buffer (0.5% w/v BSA in PBST) for 3 seconds, the soaking and dipping steps were repeated for three times. […] A new baseline was run for 100 seconds in another well with running buffer. Then the sensors were dipped in a well with serially diluted human PD-1-his protein (Cat#:PD1-H5221, Acro biosystems Inc., starting at 100 nM with a two-fold serial dilution) in running buffer for 120 seconds, and then immersed in a baseline well for […]. Finally, sensors were presoaked with 10 mM glycine (pH 1.5) for 30 seconds, and then were dipped in a well with running buffer for 30 seconds. The association and dissociation curves were fit to a 1:1 Langmuir binding model using ForteBio Data Analysis 8.1 evaluation software.

[7] = target: T5, cynomolgus PD-1-his protein (Cat#:PD1-05223, Acro biosystems Inc.) (cynomolgus, UniProt B0LAJ3 25-170); test: indirect ELISA on coated cynomolgus PD-1-his
T5 construct: Bought protein used in Biacore and indirect ELISA; also called monkey PD-1; Cyno PD-1

[8] = target: T2, in house made human PD-1-Fc protein; test: competitive ELISA: biotin human PD-1-Fc + antibody on coated human PD-L1-Fc (competitor)
Protocol: Briefly, 100 μl human PD-L1-Fc protein (prepared in-house with SEQ ID NO: 28) at 2 μg/mL in carbonate/bicarbonate buffer (pH 9.6) was coated on 96-well micro plates overnight at 4° C., Plates were washed with wash buffer (PBS+0.05% w/v Tween-20, PBST), and blocked with 5% w/v non-fatty milk in PBST for 2 hours at 37° C. […] After incubation at 37° C. for 40 minutes, plates were washed using wash buffer. […] Plates were washed again using wash buffer. Finally, TMB was added and the reaction was stopped using 1M H₂SO₄. The absorbance was read on a microplate reader using dual wavelength mode with 450 nm for TMB and 630 nm as the reference wavelength, then the OD (450-630) values were plotted against antibody concentrations. Data was analyzed using Graphpad Prism software and IC₅₀ values were reported.

[9] = target: T5, cynomolgus PD-1-his protein …; test: SPR (Biacore), Example 9
[10] = target: T6, recombinant human PD-1-his protein (Cat#:10377-H08H, Sino biological Inc.) (human, UniProt Q15116 25-167); test: SPR (Biacore), Example 9
T6 construct: Bought protein used as analyte in the Biacore tests; not shown: his tag

[11] = target: T7, recombinant mouse PD-1-his protein (Cat#:50124-M08H, Sino Biological Inc) (mouse, UniProt Q02242 25-167); test: SPR (Biacore), Example 9
T7 construct: Bought protein used in Biacore and indirect ELISA; not shown: his tag
T7 sequence (looked up): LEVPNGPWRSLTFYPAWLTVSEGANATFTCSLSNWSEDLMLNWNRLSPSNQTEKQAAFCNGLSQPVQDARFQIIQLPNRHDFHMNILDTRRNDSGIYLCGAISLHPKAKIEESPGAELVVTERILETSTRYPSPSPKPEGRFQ

[12] = target: T3, human PD-1-his protein prepared in-house; test: competitive ELISA: biotin human PD-1-his + antibody on coated Pembrolizumab (competitor)
Protocol: ELISA plates were washed once with wash buffer (PBST, PBS+0.05% Tween-20) and then blocked with 200 μl/well blocking buffer (5% w/v non-fatty milk in PBST) for 2 hours at 37° C. […] After incubation at 37° C. for 40 minutes, plates were washed using wash buffer, added and incubated with 100 μl/well Peroxidase Streptavidin for 40 minutes at 37° C. Plates were washed again using wash buffer. Finally, TMB was added and the reaction was stopped using 1M H₂SO₄. The absorbance was read on a microplate reader using dual wavelength mode with 450 nm for TMB and 630 nm as the reference wavelength, and the OD (450-630) values were plotted against antibody concentrations. Data was analyzed using Graphpad Prism software and IC₅₀ values were reported.

B1: humanized antibody huE1A9C8A7-V8 (antibody, human IgG4 S228P, kappa, V domains shown)
VH: QVQLVQSGAEVVKPGASVKISCKASGYTFTDYVMHWVRQAPGQSLEWMGVISTYHIPAVYNQKFKGKATMTVDTSTSTVYLELSSLRSEDTAVYYCAREVYGDSYYFDVWGQGTTVTVSS
VL: DIVMTQTPLSLPVTPGEPASISCRSSQSIVHSNGNTYLEWYLQKPGQSPQLLIYKVSNRFSGVPDRFSGSGSGTDFTLKISRVEAEDVGVYYCFQGSHVPYTFGGGTKVEIKR
notes: Human IgG4/kappa
EC50 [1]: 461 pM | IC50 [2]: 550 pM | EC50 [3]: 630 pM | Cell-based functional assay (EC50, nM) [4]: 5.13 nM | EC50 [5]: 210 pM | Kd [6]: 1130 pM | koff [6]: 0.000291 s⁻¹ | kon [6]: 258000 M⁻¹ s⁻¹ | EC50 [7]: 820 pM | IC50 [8]: 330 pM | Kd [9]: 1340 pM | koff [9]: 0.000484 s⁻¹ | kon [9]: 361000 M⁻¹ s⁻¹ | Kd [10]: 634 pM | koff [10]: 0.000593 s⁻¹ | kon [10]: 934000 M⁻¹ s⁻¹ | Kd [11]: 380000 pM | koff [11]: 0.0182 s⁻¹ | kon [11]: 47900 M⁻¹ s⁻¹ | IC50 [12]: 510 pM

B2: humanized antibody huE1A9C8A7-V8-3 (antibody, human IgG4 S228P, kappa, V domains shown)
VH: QVQLVQSGAEVVKPGASVKISCKASGYTFTDYVMHWVRQAPGQSLEWMGVISTYHIPAVYNQKFKGKATMTVDTSTSTVYLELSSLRSEDTAVYYCAREVYGESYYFDVWGQGTTVTVSS
VL: DIVMTQTPLSLPVTPGEPASISCRSSQSIVHSAGNTYLEWYLQKPGQSPQLLIYKVSNRFSGVPDRFSGSGSGTDFTLKISRVEAEDVGVYYCFQGSHVPYTFGGGTKVEIKR
notes: huE1A9C8A7-V8 modified in VH CDR3 (D to E) and VL CDR1 (N to A)
EC50 [1]: 451 pM | Kd [9]: 722 pM | koff [9]: 0.000332 s⁻¹ | kon [9]: 461000 M⁻¹ s⁻¹ | Kd [10]: 382 pM | koff [10]: 0.00041 s⁻¹ | kon [10]: 1.07e+06 M⁻¹ s⁻¹ | Kd [11]: 244000 pM | koff [11]: 0.0167 s⁻¹ | kon [11]: 64800 M⁻¹ s⁻¹

From patent US20230331848A1 (BIOSION, published 2023)
